Values of other authors as cited in PMC10742151.
Where two headings read alike, the source gives them in different places.

Tests used:
[1] = biological target: CA125 (ovarian cancer biomarker antigen) (UniProt Q8WXI7); details: AFM chip (DSP-activated APTES mica) with immobilized aptamer incubated in CA125 solution, then washed with 0.01% Emulgen 913; buffer, salt, pH and temperature …
[2] = biological target: CA125 (ovarian cancer biomarker antigen) (UniProt Q8WXI7); details: AFM chip (DSP-activated APTES mica) with immobilized aptamer incubated in CA125 solution, then washed with 0.01% Emulgen 913; buffer, salt, pH and temperature …; remark: listed apart in the source

Substance	Kd [1] [nM]	Kd [2] [nM]
TAGGGAAGAGAAGGACATATGATGATCAACAACACAAGGGGGGGGGTATCTAGTTGACTAGTACATGACCACTTGA [apta#2 (apta#2.43)]	239	
TAGGGAAGAGAAGGACATATGATTTTAGGGAAGAGAAGGACTTTTATGCCGCCTTGACTAGTACATGACCACTTGA [apta#1 (apta#2.26)]	166	
apta#3 (ATW0055, BasePair Biotechnologies)		33.8
